Among the targets are HSA (human, UniProt P02768); ROR1 (UniProt Q01973); PD-L1 (UniProt Q9NZQ7).
Assay in all cases: SPR
For orientation: In SPR one partner is held on a chip, and binding of the other changes the refractive index at the surface.

For the next assay, the target named is T1, MSLN (UniProt Q13421).
T1 chain: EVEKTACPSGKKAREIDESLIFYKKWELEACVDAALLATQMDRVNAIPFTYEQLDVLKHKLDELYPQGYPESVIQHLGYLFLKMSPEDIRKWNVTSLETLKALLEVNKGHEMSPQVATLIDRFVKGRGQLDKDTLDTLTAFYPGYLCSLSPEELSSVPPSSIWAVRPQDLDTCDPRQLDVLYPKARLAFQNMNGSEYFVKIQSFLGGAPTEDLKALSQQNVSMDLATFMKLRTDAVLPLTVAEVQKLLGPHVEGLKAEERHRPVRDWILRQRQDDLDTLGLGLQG

Sequence of ROR1 (Q01973 30-403): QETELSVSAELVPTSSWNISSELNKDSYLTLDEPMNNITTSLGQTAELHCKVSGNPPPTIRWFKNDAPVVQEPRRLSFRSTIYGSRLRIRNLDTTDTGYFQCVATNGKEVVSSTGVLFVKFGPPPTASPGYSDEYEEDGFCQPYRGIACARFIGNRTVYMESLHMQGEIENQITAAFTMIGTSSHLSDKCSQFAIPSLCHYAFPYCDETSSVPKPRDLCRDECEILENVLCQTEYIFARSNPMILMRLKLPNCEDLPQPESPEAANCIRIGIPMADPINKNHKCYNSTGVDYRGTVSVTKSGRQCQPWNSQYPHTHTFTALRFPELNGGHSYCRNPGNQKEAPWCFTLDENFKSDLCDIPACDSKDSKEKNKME
Sequence of PD-L1 (Q9NZQ7 19-238): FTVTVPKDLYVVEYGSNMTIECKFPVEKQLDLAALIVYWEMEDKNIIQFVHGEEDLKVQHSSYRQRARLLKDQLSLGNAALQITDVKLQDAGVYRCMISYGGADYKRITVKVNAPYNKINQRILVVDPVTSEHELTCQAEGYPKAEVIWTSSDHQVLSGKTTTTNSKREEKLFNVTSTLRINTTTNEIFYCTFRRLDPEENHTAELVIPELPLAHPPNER

B1: PRO4112 (19-04-A10-sc11) (antibody)
chain: AFQLTQSPSSLSASVGDRVTITCQASESINSRLAWYQQKPGKPPKLLIYDASDLTSGVPSRFSGRGSGTDFTLTISSLQPEDFATYYCQGYGGSSTTTFGCGTKVTVLGGGGGSGGGGSGGGGSGGGGSQQLVESGGGLVQPGGSLRLSCAASGFSLSSYAMNWVRQAPGKCLEWIGHINAGDIAYYATWAKGRFTISKDNSKNTVYLQMNNLRAEDSAVYFCARGAGGFSTGPFKLWGQGTLVKVSS
The Kd is the concentration at which binding is half-saturated. Lower therefore signals a tighter complex. In the assay with HSA, B1 displayed a Kd of 0.174 nM.

B2: PRO4113 (19-04-A10-sc12) (antibody)
chain: AFQLTQSPSSLSASVGDRVTITCQASESINSRLAWYQQKPGKPPKLLIYDASDLTSGVPSRFSGRGSGTDFTLTISSLQPEDFATYYCQGYGGSSTTTFGCGTKVTVLGGGGGSGGGGSGGGGSGGGGSQSVVESGGGLVQPGGSLRLSCAASGFSLSSYAMNWVRQAPGKCLEWIGHINAGDIAYYATWAKGRFTISKDNSKNTVYLQMNSLRAEDSAVYFCARGAGGFSTGPFKLWGQGTLVKVSS
As for B2, the dissociation constant (Kd) with HSA turned out to be 0.0901 nM.

B3: PRO4139 (55-38-D07-sc09 A67G_S68G) (antibody)
chain: DVQMTQSPSSLSASVGDRVTITCRASENIYSGLAWYQQKPGKPPKLLIYRGGTLASGVSSRFSGSGSGTDFTLTISSLQPEDFATYYCQGGYYSSSSTYIAFGTGTKVTVLGGGGGSGGGGSGGGGSGGGGSQSVVESGGGLVQPGGSLRLSCAVSGFDLSSYAVSWVRQAPGKGLEWIGIIYPRANTYYASWAKGRFTISKDNSKNTVYLQMNSLRAEDSAVYFCARDRYDSGAYLYTTYFNLWGQGTLVKVSS
In the assay with ROR1, B3 displayed a Kd of 0.212 nM.

B4: PRO4143 (55-38-D07-sc09 G51C A67G_S68G_T141C) (antibody)
chain: DVQMTQSPSSLSASVGDRVTITCRASENIYSGLAWYQQKPGKPPKLLIYRGGTLASGVSSRFSGSGSGTDFTLTISSLQPEDFATYYCQGGYYSSSSTYIAFGCGTKVTVLGGGGGSGGGGSGGGGSGGGGSQSVVESGGGLVQPGGSLRLSCAVSGFDLSSYAVSWVRQAPGKCLEWIGIIYPRANTYYASWAKGRFTISKDNSKNTVYLQMNSLRAEDSAVYFCARDRYDSGAYLYTTYFNLWGQGTLVKVSS
In turn, B4 displayed an equilibrium dissociation constant (Kd) in the assay with ROR1 of 0.631 nM.

B5: PRO4135 (55-38-D07-sc09) (antibody)
chain: DVQMTQSPSSLSASVGDRVTITCRASENIYSGLAWYQQKPGKPPKLLIYRASTLASGVSSRFSGSGSGTDFTLTISSLQPEDFATYYCQGGYYSSSSTYIAFGTGTKVTVLGGGGGSGGGGSGGGGSGGGGSQSVVESGGGLVQPGGSLRLSCAVSGFDLSSYAVSWVRQAPGKGLEWIGIIYPRANTYYASWAKGRFTISKDNSKNTVYLQMNSLRAEDSAVYFCARDRYDSGAYLYTTYFNLWGQGTLVKVSS
Consider B5, for which binding with ROR1 was characterised by a dissociation constant (Kd) of 0.122 nM.

B6: PRO2155 (19-04-A10-sc02) (antibody)
chain: AFELTQSPSSLSASVGDRVTITCQASESINSRLAWYQQKPGQPPKLLIYDASDLTSGVPSRFSGSGSGTDFTLTISSLQPEDFATYYCQGYGGSSTTTFGGGTKLTVLGGGGGSGGGGSGGGGSGGGGSEVQLVESGGGLVQPGGSLRLSCAASGFSLSSYAMNWVRQAPGKGLEWIGHINAGDIAYYATWAKGRFTISRDNSKNTVYLQMNSLRAEDTAVYFCARGAGGFSTGPFKLWGQGTLVTVSS
For B6, in the assay with HSA, the equilibrium dissociation constant (Kd) turned out to be 2.62 nM.

B7: PRO3735 (55-38-D07-sc02 A67G_S68G) (antibody)
chain: DVQMTQSPSSLSASVGDRVTITCRASENIYSGLAWYQQKPGKPPKLLIYRGGTLASGVSSRFSGSGSGTDFTLTISSLQPEDFATYYCQGGYYSSSSTYIAFGTGTKVTVLGGGGGSGGGGSGGGGSGGGGSQSQVVESGGGLVQPGGSLRLSCAVSGFDLSSYAVSWVRQAPGKGLEWIGIIYPRANTYYASWAKGRFTISKDNSKNTVYLQMNSLRAEDTAVYFCARDRYDSGAYLYTTYFNLWGQGTLVTVSS
B7: in the assay with ROR1, the dissociation constant (Kd) was determined as 0.336 nM.

B8: PRO3733 (54-32-A07-sc06 G51C_T141C A67G_S68G) (antibody)
chain: ALQMTQSPSSLSARVGDRVTIKCQASQSISNYLAWYQQKPGKPPKFLIYDGGDLASGVPSRFSGSGSGRDFTLTISSLQPEDFATYYCQQVYDSNNVENVFGCGTKVTVLGGGGGSGGGGSGGGGSGGGGSQSQLVESGGGLVQPGGSLRLSCAVSGFSLSSYAMGWVRQAPGKCLEYIGYISKIGTTYYASWAKGRFTISKDNSKNTVYLQMNSLRAEDTAVYFCARGSSSGGYLDDGFDPWGQGTLVTVSS
Turning to B8, the dissociation constant (Kd) in the assay with MSLN turned out to be 1.58 nM.

B9: PRO2309 (54-32-A07-sc06 G51C_T141C) (antibody)
chain: ALQMTQSPSSLSARVGDRVTIKCQASQSISNYLAWYQQKPGKPPKFLIYDASDLASGVPSRFSGSGSGRDFTLTISSLQPEDFATYYCQQVYDSNNVENVFGCGTKVTVLGGGGGSGGGGSGGGGSGGGGSQSQLVESGGGLVQPGGSLRLSCAVSGFSLSSYAMGWVRQAPGKCLEYIGYISKIGTTYYASWAKGRFTISKDNSKNTVYLQMNSLRAEDTAVYFCARGSSSGGYLDDGFDPWGQGTLVTVSS
As for B9, the Kd in the assay with MSLN stood at 0.561 nM. Against the preceding molecule, the Kd is about 2.8-fold lower.

B10: PRO4125 (37-20-B03 sc17 A67G_F68G) (antibody)
chain: DIQMTQSPSSLSASVGDRVTITCQASQSIGTYLAWYQQKPGKPPKLLIYRGGILASGVPSRFSGSGSGTDFTLTISSLQPEDFATYYCQSNFYSDSTTIGPNAFGTGTKVTVLGGGGGSGGGGSGGGGSGGGGSQSLVESGGGLVQPGGSLRLSCAASGFSFNSDYWISWVRQAPGKGLEWIASIYGGSSGNTQYASWAQGRFTISKDNSKNTVYLQMNSLRAEDTAVYFCARGYVDYGGATDLWGQGTLVTVSS
In turn, B10 gave an equilibrium dissociation constant (Kd) with PD-L1 of 0.196 nM.

B11: PRO1434 (33-03-G02 Q108A_G109A) (antibody)
chain: DIQMTQSPSSLSASVGDRVTITCQASQSINDYLAWYQQKPGKAPKLLIYKASTLASGVPSRFSGSGSGTDFTLTISSLQPEDFATYYCQAAYIITDIDNVFGTGTKVTVLGGGGGSGGGGSGGGGSGGGGSQVQLQESGPGLVKPSETLSLTCKVSGFSFSSGYDMCWIRQPPGKGLEWIGCVVAGSVDITYYASWAKGRVTISVDSSKNQFSLKLSSVTAADTAVYYCARKDAYSDAFNLWGQGTLVTVSS
Consider B11, for which the Kd with PD-L1 amounted to 491 nM.

B12: PRO3725 (33-03-G02 Q108A_G109A A67G_F68G) (antibody)
chain: DIQMTQSPSSLSASVGDRVTITCQASQSINDYLAWYQQKPGKAPKLLIYKGGTLASGVPSRFSGSGSGTDFTLTISSLQPEDFATYYCQAAYIITDIDNVFGTGTKVTVLGGGGGSGGGGSGGGGSGGGGSQVQLQESGPGLVKPSETLSLTCKVSGFSFSSGYDMCWIRQPPGKGLEWIGCVVAGSVDITYYASWAKGRVTISVDSSKNQFSLKLSSVTAADTAVYYCARKDAYSDAFNLWGQGTLVTVSS
Take B12: binding with PD-L1 was put at a Kd of 491 nM.

B13: PRO1347 (37-20-B03 sc09-IF) (antibody)
chain: IQMTQSPASLSASVGDRVTITCQASQSIGTYLAWYQQKPGKPPKLLIYRAFILASGVPSRFSGSGSGTDFTLTISSLQPEDFATYYCQSNFYSDSTTIGPNAFGTGTKVTVLGGGGGSGGGGSGGGGSGGGGSEVQLVESGGGLVQPGGSLRLSCAASGFSFNSDYWIYWVRQAPGKGLEWIACIYGGSSGNTQYASWAQGRFTISRDNSKNTVYLQMNSLRAEDTAVYFCARGYVDYGGATDLWGQGTLVTVSS
As to B13, in the assay with PD-L1, binding was put at a Kd of 0.0109 nM.

B14: PRO2062 (55-39-G02-sc02) (antibody)
chain: AQQLTQSPSSLSASVGDRVTITCQASQNVWNNNYLSWFQQKPGKPPKLLIVTASTLASGVSSRFSGSGSGTDFTLTISSLQPEDFATYYCAGGFSGEIRAFGTGTKVTVLGGGGGSGGGGSGGGGSGGGGSQSQLVESGGGLVQPGGSLRLSCAVSGLSLSRNAMSWVRQAPGKGLEWIGIILTSGSTYYASWAKGRFTISKDNSKNTVYLQMNSLRAEDTAVYFCVRGIASSSLKSFWGQGTLVTVSS
For B14, in the assay with ROR1, the equilibrium dissociation constant (Kd) was found to be 0.108 nM.

B15: PRO3734 (55-39-G02-sc02 A67G_S68G) (antibody)
chain: AQQLTQSPSSLSASVGDRVTITCQASQNVWNNNYLSWFQQKPGKPPKLLIVTGGTLASGVSSRFSGSGSGTDFTLTISSLQPEDFATYYCAGGFSGEIRAFGTGTKVTVLGGGGGSGGGGSGGGGSGGGGSQSQLVESGGGLVQPGGSLRLSCAVSGLSLSRNAMSWVRQAPGKGLEWIGIILTSGSTYYASWAKGRFTISKDNSKNTVYLQMNSLRAEDTAVYFCVRGIASSSLKSFWGQGTLVTVSS
As to B15, binding in the assay with ROR1 was put at a Kd of 0.12 nM. This Kd and that of the molecule before are within 1.5-fold of each other.

B16: PRO2060 (55-38-D07-sc02) (antibody)
chain: VQMTQSPSSLSASVGDRVTITCRASENIYSGLAWYQQKPGKPPKLLIYRASTLASGVSSRFSGSGSGTDFTLTISSLQPEDFATYYCQGGYYSSSSTYIAFGTGTKVTVLGGGGGSGGGGSGGGGSGGGGSQSQVVESGGGLVQPGGSLRLSCAVSGFDLSSYAVSWVRQAPGKGLEWIGIIYPRANTYYASWAKGRFTISKDNSKNTVYLQMNSLRAEDTAVYFCARDRYDSGAYLYTTYFNLWGQGTLVTVSS
In turn, B16 gave a Kd in the assay with ROR1 of 0.119 nM.

B17: PRO3732 (54-21-H03-sc01 A67G_S68G) (antibody)
chain: DIQMTQSPSSLSASVGDRVTITCQASESIYSSLAWYQQKPGKAPKLLIYLGGTLASGVPSRFSGSGSGTDFTLTISSLQPEDFATYYCQSTDYTTSTHRNSFGTGTKVTVLGGGGGSGGGGSGGGGSGGGGSEVQLVESGGGLVQPGGSLRLSCAASGFSFSTTYYMCWVRQAPGKGLEWIGCTNTASSVRTYYATWAKGRFTISRDNSKNTVYLQMNSLRAEDTAVYYCARDMGFADYALNLWGQGTLVTVSS
For B17, in the assay with MSLN, the equilibrium dissociation constant (Kd) was 0.172 nM.

B18: PRO1922 (54-21-H03-sc01) (antibody)
chain: DIQMTQSPSSLSASVGDRVTITCQASESIYSSLAWYQQKPGKAPKLLIYLASTLASGVPSRFSGSGSGTDFTLTISSLQPEDFATYYCQSTDYTTSTHRNSFGTGTKVTVLGGGGGSGGGGSGGGGSGGGGSEVQLVESGGGLVQPGGSLRLSCAASGFSFSTTYYMCWVRQAPGKGLEWIGCTNTASSVRTYYATWAKGRFTISRDNSKNTVYLQMNSLRAEDTAVYYCARDMGFADYALNLWGQGTLVTVSS
In the assay with MSLN, B18 had a Kd of 0.151 nM.

For the origin of these results see US20260327324 (published 2026).
